In paper PMC3669356:

Tests used:
[1] = target: Schistosoma japonicum GST (GST-Sj), purified recombinant (Schistosoma japonicum) [GST: P08515]; assay: SPR
[2] = target: rat GSTM1, purified recombinant (rat); assay: SPR; BIAcore; GSTM1 or GSTP1 immobilised by amine coupling on CM5 chips; AMPK 221WT injected (10 nM, or a concentration series) at 30 µl/min; 10 mM HEPES pH 7.4, 100 mM NaCl, 50 μM EDTA, 0.005% Surfactant P20; Langmuir 1:1 fit

Row | Substance | equilibrium response [1] [RU] | Kd [2] [nM] | koff [2] [s⁻¹] | kon [2] [M⁻¹ s⁻¹]
1 | AMPK α2T172Dβ2γ1 mutant (221TD) (from UniProt Q09137 1-552; Q9QZH4 1-271; P80385 1-330) (complex) | 121 |  |  | 
2 | AMPK α2β2γ1 (221WT) (from UniProt Q09137 1-552; Q9QZH4 1-271; P80385 1-330) (complex) | 203 | 5 | 0.0016 | 310000
